Substitutions are numbered along the chain they refer to. Names and notes keep the numbering of the source.

For data set [1], the target named is T1, TtPPO (Thermothelomyces thermophilus, UniProt G2QLD3, G312N/L326A).
T1 sequence (G2QLD3 23-424 G312N/L326A): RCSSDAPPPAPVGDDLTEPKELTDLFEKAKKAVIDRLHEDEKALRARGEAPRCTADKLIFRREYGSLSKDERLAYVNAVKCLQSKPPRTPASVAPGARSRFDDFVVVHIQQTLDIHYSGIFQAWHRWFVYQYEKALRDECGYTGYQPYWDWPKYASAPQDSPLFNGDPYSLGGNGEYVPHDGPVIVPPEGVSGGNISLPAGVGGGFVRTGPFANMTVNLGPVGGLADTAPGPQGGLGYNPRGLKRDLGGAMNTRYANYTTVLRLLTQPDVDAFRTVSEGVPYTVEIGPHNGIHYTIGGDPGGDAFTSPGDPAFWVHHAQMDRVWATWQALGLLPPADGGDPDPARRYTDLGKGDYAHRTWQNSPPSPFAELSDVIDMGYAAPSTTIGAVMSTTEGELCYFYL
Briefly: spectrophotometric oxidation assay, non-linear regression. As to conditions: 0.1 M sodium phosphate pH 7, 40 °C, 0-5 mM substrate.

The target of data set [2] is T2, TtPPO (Thermothelomyces thermophilus, UniProt G2QLD3, Y316V).
T2 sequence (G2QLD3 23-424 Y316V): T1 sequence (G2QLD3 23-424 G312N/L326A) with N290G, Y294V, A304L
The data set is described as above. To be noted: 0.1 M sodium phosphate pH 7, 40 °C, 0-5 mM substrate.

Data set [3] deals with T3, TtPPO (Thermothelomyces thermophilus, UniProt G2QLD3, G312N/Y316V).
T3 sequence (G2QLD3 23-424 G312N/Y316V): T1 sequence (G2QLD3 23-424 G312N/L326A) with Y294V, A304L
The description is as above. As to conditions: 0.1 M sodium phosphate pH 7, 40 °C, 0-5 mM substrate.

In data set [4] the target is T4, TtPPO (Thermothelomyces thermophilus, UniProt G2QLD3, G312N).
T4 sequence (G2QLD3 23-424 G312N): T1 sequence (G2QLD3 23-424 G312N/L326A) with A304L
The description is as above. As to conditions: 0.1 M sodium phosphate pH 7, 40 °C, 0-5 mM substrate.

For data set [5], the target named is T5, TtPPO (Thermothelomyces thermophilus, UniProt G2QLD3).
T5 sequence (G2QLD3 23-424): T1 sequence (G2QLD3 23-424 G312N/L326A) with N290G, A304L
The description is as above. As to conditions: 0.1 M sodium phosphate pH 7, 40 °C, 0-5 mM substrate.

For data set [6], the target named is T6, TtPPO (Thermothelomyces thermophilus, UniProt G2QLD3, L326A).
T6 sequence (G2QLD3 23-424 L326A): T1 sequence (G2QLD3 23-424 G312N/L326A) with N290G
Described as above. As to conditions: 0.1 M sodium phosphate pH 7, 40 °C, 0-5 mM substrate.

Substrate in data set [7]: Oc1ccccc1O
Briefly: purified protein. As to conditions: 0.1 M sodium phosphate pH 7, 40 °C, 0-60 mM substrate.

Substrate in data set [8]: Oc1ccc(O)cc1
Kind of data set: purified protein. As to conditions: 0.1 M sodium phosphate pH 7, 40 °C, 0-70 mM substrate.

Substrate in data set [9]: Oc1cc(O)c2c(c1)O[C@H](c1ccc(O)c(O)c1)[C@@H](O)C2
Kind of data set: purified protein. As to conditions: 0.1 M sodium phosphate pH 7, 40 °C, 0-10 mM substrate.

Substrate in data set [10]: COc1ccccc1O
Briefly: purified protein. To be noted: 0.1 M sodium phosphate pH 7, 40 °C, 0-15 mM substrate.

Substrate in data set [11]: N[C@@H](Cc1ccc(O)c(O)c1)C(=O)O
Kind of data set: purified protein. As to conditions: 0.1 M sodium phosphate pH 7, 40 °C, 0-7 mM substrate.

Consider `Oc1ccc(Cl)cc1O` [4-chlorocatechol], for which the Km on TtPPO [1] was 500 µM; on TtPPO [2] it was 2200 µM; on TtPPO [3], 4300 µM; at TtPPO [4] it was 3500 µM; at TtPPO [5] it was 1800 µM; on TtPPO [6], 400 µM.

B1: TtPPO (Thermothelomyces thermophilus ATCC 42464) (protein)
chain: T1 sequence (G2QLD3 23-424 G312N/L326A) with N290G, A304L
Consider B1, for which the Km is recorded as 32.5(4.3) mM in “purified protein [7]”; 59.1(6.0) mM in the data set “purified protein [8]”; 33.7(14.0) mM in the data set “purified protein [9]”; 4.6(0.6) mM in the data set “purified protein [10]”; 2.4(0.7) mM in “purified protein [11]”. Moreover, the kcat in “purified protein [7]” is recorded as 8.6(0.6) min^-1; in “purified protein [8]” it was 67.5(3.9) min^-1; in “purified protein [9]” it was 1619.1(549.2) min^-1; in “purified protein [10]”, 39.3(2.2) min^-1; in “purified protein [11]”, 4.3(0.5) min^-1.

B2: TtPPO (Thermothelomyces thermophilus ATCC 42464; L326A) (protein)
chain: T1 sequence (G2QLD3 23-424 G312N/L326A) with N290G
As to B2, in “purified protein [9]”, the Km is given as 2.8(0.5) mM and the kcat is on record as 415.0(35.1) min^-1.

B3: TtPPO (Thermothelomyces thermophilus ATCC 42464; G312N/L326A) (protein)
chain: T1 sequence (G2QLD3 23-424 G312N/L326A)
For B3, in “purified protein [9]”, the Km is reported as 4.3(0.3) mM and the kcat is listed as 337.9(11.2) min^-1.

B4: TtPPO (Thermothelomyces thermophilus ATCC 42464; G312N/Y316V) (protein)
chain: T1 sequence (G2QLD3 23-424 G312N/L326A) with Y294V, A304L
As for B4, in the data set “purified protein [9]”, the Km was 10.3(0.8) mM and the kcat is reported as 33.3(1.7) min^-1.

B5: TtPPO (Thermothelomyces thermophilus ATCC 42464; G312N) (protein)
chain: T1 sequence (G2QLD3 23-424 G312N/L326A) with A304L
As for B5, in “purified protein [9]”, the Km was 4.3(1.0) mM and the kcat was 2.9(0.3) min^-1.

B6: TtPPO (Thermothelomyces thermophilus ATCC 42464; Y316V) (protein)
chain: T1 sequence (G2QLD3 23-424 G312N/L326A) with N290G, Y294V, A304L
In the case of B6, in “purified protein [9]”, the Km was 9.7(2.4) mM and the kcat is reported as 547.3(84.6) min^-1.
